Experimental data as given in the supplement of paper PMC10724198.
± gives the standard deviation of the averaged measurements.

Assays:
[1] = test system: Saccharomyces cerevisiae; assay: protein stability index of tFT-peptide fusion (C-terminal peptide) (PSI (0-1 scale)); higher = more stable (slower turnover); details: genetic background: wild type; temperature: 30 C
[2] = test system: Saccharomyces cerevisiae; assay: as above
Method: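 MPS profiling in S. cerevisiae of the tFT-X12 degron library: putative degron peptides plus stable controls, 12 aa, fused to the C-terminus of a sfGFP-mCherry timer. Cells are FACS-sorted into 8 mCherry/sfGFP bins and deep-sequenced. PSI runs from 0 (unstable) to 1 (stable). Backgrounds are wild type, das1Δ and doa10Δ at 30 °C, and wild type, das1Δ, cdc34-1 and cdc53-1 at 37 °C; 2-3 technical replicates each.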

[3] = genetic background: cdc34-1, temperature: 37 C
[4] = genetic background: cdc53-1, temperature: 37 C
[5] = genetic background: das1 deletion, temperature: 30 C
[6] = genetic background: das1 deletion, temperature: 37 C
[7] = genetic background: doa10 deletion, temperature: 30 C
[8] = genetic background: wild type, temperature: 30 C
[9] = genetic background: wild type, temperature: 37 C
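Also: PSI is a weighted mean of sequencing reads over stability bins, variants kept only with over 10 reads, mCherry proximal and sfGFP distal, peptide attached via GGGS linker.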

| Sequence | protein stability index [1] | protein stability index [2, 3] | protein stability index [2, 4] | protein stability index [2, 5] | protein stability index [2, 6] | protein stability index [2, 7] | protein stability index [2, 8] | protein stability index [2, 9] |
| --- | --- | --- | --- | --- | --- | --- | --- | --- |
| DSGMLDFLLMAW | 0.598 ± 0.16 | 0.541 ± 0.039 | 0.545 ± 0.015 | 0.432 ± 0.035 | 0.57175 ± 0.00049 | 0.421 ± 0.011 | 0.451 ± 0.013 | 0.53 ± 0.0056 |
| VVSLGGWCLYIY | 0.412 ± 0.025 | 0.423 ± 0.061 | 0.4605 ± 0.0016 | 0.416 ± 0.032 | 0.461 ± 0.012 | 0.385 ± 0.023 | 0.333 ± 0.019 | 0.416 ± 0.0093 |
| VTVWVFVFLRGL | 0.374 ± 0.052 | 0.319 ± 0.0069 | 0.393 ± 0.015 | 0.315 ± 0.029 | 0.454 ± 0.029 | 0.294 ± 0.0043 | 0.302 ± 0.019 | 0.453 ± 0.0035 |
| FFLVLWSSLLSP | 0.454 ± 0.036 | 0.457 ± 0.025 | 0.5545 ± 0.00086 | 0.378 ± 0.035 | 0.572 ± 0.006 | 0.3584 ± 0.0021 | 0.386 ± 0.033 | 0.5441 ± 0.0011 |
| RYQDLSDWRRIS | 0.159 ± 0.0075 | 0.412 ± 0.02 | 0.6574 ± 0.0031 | 0.629 ± 0.0036 | 0.753 ± 0.028 | 0.073 ± 0.0096 | 0.0791 ± 0.017 | 0.0794 ± 0.017 |
| LIMIRLLYLRLI | 0.102 ± 0.035 | 0.166 ± 0.15 | 0.153 ± 0.042 | 0.269 ± 0.029 | 0.365 ± 0.022 | 0.105 ± 0.017 | 0.0628 ± 0.033 | 0.102 ± 0.0037 |
| LFAIFLVVLLFR | 0.219 ± 0.054 | 0.106 ± 0.016 | 0.089 ± 0.0072 | 0.195 ± 0.03 | 0.273 ± 0.0081 | 0.297 ± 0.0092 | 0.201 ± 0.028 | 0.2089 ± 0.0002 |
| LFPVFFPLFAPA | 0.322 ± 0.03 | 0.285 ± 0.029 | 0.336 ± 0.035 | 0.266 ± 0.034 | 0.404 ± 0.018 | 0.206 ± 0.013 | 0.271 ± 0.018 | 0.36504 ± 0.00017 |
| KKKKKKKIKIMS | 0.266 ± 0.048 | 0.583 ± 0.0096 | 0.706 ± 0.019 | 0.636 ± 0.024 | 0.689 ± 0.018 | 0.176 ± 0.03 | 0.232 ± 0.051 | 0.293 ± 0.032 |
| FILSLSFVFSRP | 0.405 ± 0.073 | 0.415 ± 0.037 | 0.501 ± 0.011 | 0.425 ± 0.027 | 0.462 ± 0.012 | 0.452 ± 0.039 | 0.441 ± 0.046 | 0.441 ± 0.026 |
| LFYVSFLFMLLF | 0.378 ± 0.01 | 0.359 ± 0.084 | 0.34751 ± 0.00024 | 0.363 ± 0.036 | 0.459 ± 0.025 | 0.396 ± 0.0059 | 0.325 ± 0.013 | 0.447 ± 0.029 |
| VSVFSLFLFLRV | 0.421 ± 0.0044 | 0.25 ± 0.047 | 0.194 ± 0.022 | 0.357 ± 0.03 | 0.413 ± 0.045 | 0.531 ± 0.031 | 0.35 ± 0.03 | 0.353 ± 0.049 |
| IMGGLRHRIEVY | 0.352 ± 0.016 | 0.366 ± 0.038 | 0.403 ± 0.048 | 0.273 ± 0.028 | 0.477 ± 0.012 | 0.23 ± 0.0031 | 0.268 ± 0.034 | 0.437 ± 0.0067 |
| FFFFPVYFIFVV | 0.311 ± 0.0065 | 0.272 ± 0.014 | 0.288 ± 0.05 | 0.259 ± 0.02 | 0.409 ± 0.013 | 0.259 ± 0.01 | 0.232 ± 0.016 | 0.32 ± 0.0059 |
| RGSLYLILVLIG | 0.269 ± 0.026 | 0.194 ± 0.0058 | 0.349 ± 0.087 | 0.215 ± 0.024 | 0.4035 ± 0.00092 | 0.118 ± 0.033 | 0.163 ± 0.03 | 0.268 ± 0.021 |
